Measurements reported in patent publication US20230052369A1 (Zymeworks, published 2023).

Key:
[1] = molecular target: T1, purified human monomeric 4-1BB (human, UniProt Q07011 24-186); assay: SPR, Ab captured, monomeric 4-1BB injected
T1 construct: the assay used the 4-1BB part released by Factor Xa with the Fc removed; also called h4-1BB; human 4-1BB
Description: The anti-human Fc surface was prepared on a CMS Series S sensorchip by standard amine coupling methods as described by the manufacturer (GE Healthcare). Briefly, immediately after EDC/NHS activation, a 25 μg/mL solution of anti-human Fc in 10 mM NaOAc pH 4.5 was injected at a flow rate of 10 μL/min for 420 s until approximately 2000 resonance units (RUs) were immobilized on all four flow cells. The remaining active groups were quenched by a 420 s injection of 1M ethanolamine at 10 μL/min.
Antibodies for analysis were captured onto the anti-Fc surface by injecting 5 μg/mL solutions at a flow rate of 10 μL/min for 60 s. Using single-cycle kinetics, five concentrations of a two-fold dilution series of 4-1BB starting at 40 nM (for both supernatant and purified antibody runs) with a blank buffer control were sequentially injected at 40 μL/min for 180 s with a 600 s dissociation phase, resulting in a set of sensorgrams with a buffer blank reference. Experiments were performed at a constant temperature of 25° C. The anti-human Fc surfaces were regenerated to prepare for the next injection cycle by one pulse of 10 mM Glycine/HCl pH 1.5 for 120 s at 40 μL/min. Blank-subtracted sensorgrams were analyzed using Biacore™ T200 Evaluation Software v3.0. The blank-subtracted sensorgrams were then fit to the 1:1 Langmuir binding model.
Variants purified by SEC were assessed for binding to human 4-1BB.

[2] = molecular target: T2, full-length human FRα, on 293E cells (human, UniProt P15328 25-234); assay: flow cytometry, 293E cells expressing FRα
T2 construct: also called folate receptor alpha; FOLR1
T2 sequence (P15328 25-234 limits assumed): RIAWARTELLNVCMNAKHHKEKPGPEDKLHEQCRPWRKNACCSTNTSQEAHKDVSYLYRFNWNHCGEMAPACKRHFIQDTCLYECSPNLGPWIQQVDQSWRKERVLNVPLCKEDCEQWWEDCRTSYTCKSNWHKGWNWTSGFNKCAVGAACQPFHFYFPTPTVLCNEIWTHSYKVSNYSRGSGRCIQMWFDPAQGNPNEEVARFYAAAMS
Description: Antibodies were diluted in 50 μl FB (PBS 2% FCS) 1:3 from stock in wells of a 96 V-well plate, and cells added on top. The cells were then left on ice for 30 minutes for the antibodies to bind. The cells were then washed twice in FB, and incubated in 50 μl FB containing 2 μg/ml goat anti-human Alexa647 antibody (Jackson Immunoresearch). The cells were then left on ice for a further 20 minutes, washed twice in FB, resuspended in 100 μl FB and analyzed on a BD Fortessa™ X20. The subsequent data files were analyzed using FlowJo™ and Prism 7 (GraphPad).

T1 sequence (Q07011 other isoform, or with tags, fused parts or gaps limits assumed): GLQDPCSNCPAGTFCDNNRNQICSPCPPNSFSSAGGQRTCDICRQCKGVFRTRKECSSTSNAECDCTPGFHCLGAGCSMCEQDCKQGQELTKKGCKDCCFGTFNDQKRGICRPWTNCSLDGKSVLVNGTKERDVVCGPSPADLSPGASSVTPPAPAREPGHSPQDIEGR

Row | Binder | Kd [1] [nM] | binding result [2]
1 | v23662 (bispecific antibody, human IgG1, kappa, L234A L235A, also called 2E8 x 1H06 (VLVH) 2x1) heavy 1: QVQLKQSGPGLVQPSQSLSITCTVSGFSLTSYGVHWVRQSPGKGLEWLGVIWSGGSTDYNAAFISRLSISKDNSKSQVFFKMNSLQADDTAIYYCARNPLTATVMDYWGQGTSVTVSSASTKGPSVFPLAPSSKSTSGGTAALGCLVKDYFPEPVTVSWNSGALTSGVHTFPAVLQSSGLYSLSSVVTVPSSSLGTQTYICNVNHKPSNTKVDKKVEPKSCDKTHTCPPCPAPEAAGGPSVFLFPPKPKDTLMISRTPEVTCVVVSVSHEDPEVKFNWYVDGVEVHNAKTKPREEQYNSTYRVVSVLTVLHQDWLNGKEYKCKVSNKALPAPIEKTISKAKGQPREPQVYVYPPSRDELTKNQVSLTCLVKGFYPSDIAVEWESNGQPENNYKTTPPVLDSDGSFALVSKLTVDKSRWQQGNVFSCSVMHEALHNHYTQKSLSLSPGGGGGDIVMTQTPSSVSAAVGGTVTIKCQASQTIGSSLAWYQQKPGQPPKLLIYRASTLASGVSSRFRGSGSGTEYTLTISDLECADAATYYCQWTDYGYIYIWAFGGGTEVVVKGGGGSGGGGSGGGGSQEQLVESGGGLVQPEGSLTLTCTASKFSFSSLYYMCWVRQAPGKGLEWIACVYGGSSGNTYYASWAKGRFTISKASSTTVTLQLTSLTAADTATYFCARFDVDGSGFNLWGPGTLVTVSS heavy 2: QVQLKQSGPGLVQPSQSLSITCTVSGFSLTSYGVHWVRQSPGKGLEWLGVIWSGGSTDYNAAFISRLSISKDNSKSQVFFKMNSLQADDTAIYYCARNPLTATVMDYWGQGTSVTVSSASTKGPSVFPLAPSSKSTSGGTAALGCLVKDYFPEPVTVSWNSGALTSGVHTFPAVLQSSGLYSLSSVVTVPSSSLGTQTYICNVNHKPSNTKVDKKVEPKSCDKTHTCPPCPAPEAAGGPSVFLFPPKPKDTLMISRTPEVTCVVVSVSHEDPEVKFNWYVDGVEVHNAKTKPREEQYNSTYRVVSVLTVLHQDWLNGKEYKCKVSNKALPAPIEKTISKAKGQPREPQVYVLPPSRDELTKNQVSLLCLVKGFYPSDIAVEWESNGQPENNYLTWPPVLDSDGSFFLYSKLTVDKSRWQQGNVFSCSVMHEALHNHYTQKSLSLSPG light: DIVMTQSQKFMSTSVGDRVSVTCKASQNVGTNVAWYQQKPGQSRTVLIYSASYRHSGVPDRFTGSGSGTDFTLTISNVQSEDLAEYFCQQYNSYPLTFGTGTKLELKRTVAAPSVFIFPPSDEQLKSGTASVVCLLNNFYPREAKVQWKVDNALQSGNSQESVTEQDSKDSTYSLSSTLTLSKADYEKHKVYACEVTHQGLSSPVTKSFNRGEC | 155 | 
2 | v23660 (bispecific antibody, human IgG1, kappa, L234A L235A, also called 6B3 x 8K22 (VLVH) 2x1) heavy 1: QVQLKESGPGLVAPSQSLSITCTVSGFSLTSYAISWVRQPPGKGLEWLGVIWPGGGTNYNSALKSRLSISKDNSKSQVFLKMNSLQTDDTARYYCARGTGTWYFDVWGAGTTVTVSSASTKGPSVFPLAPSSKSTSGGTAALGCLVKDYFPEPVTVSWNSGALTSGVHTFPAVLQSSGLYSLSSVVTVPSSSLGTQTYICNVNHKPSNTKVDKKVEPKSCDKTHTCPPCPAPEAAGGPSVFLFPPKPKDTLMISRTPEVTCVVVSVSHEDPEVKFNWYVDGVEVHNAKTKPREEQYNSTYRVVSVLTVLHQDWLNGKEYKCKVSNKALPAPIEKTISKAKGQPREPQVYVYPPSRDELTKNQVSLTCLVKGFYPSDIAVEWESNGQPENNYKTTPPVLDSDGSFALVSKLTVDKSRWQQGNVFSCSVMHEALHNHYTQKSLSLSPGGGGGDIVMTQTPASVEAAVGGTVTIKCQASQSIYSSLAWYQQKPGQSPKLLIYDASHLASGVPSRFSGSRYGTEFTLTISGVQCDDAATYYCQGGWYSSAATYVPNTFGGGTEVVVKGGGGSGGGGSGGGGSQEQLVESGGGLVQPEGSLTLTCKASGFTISNNYYMCWVRQAPGKGLEWIACIYGGISGRTYYASWAKGRFTISKTSSTTVTLQMTSLTAADTATYFCVRGYVGTSNLWGPGTLVTVSS heavy 2: QVQLKESGPGLVAPSQSLSITCTVSGFSLTSYAISWVRQPPGKGLEWLGVIWPGGGTNYNSALKSRLSISKDNSKSQVFLKMNSLQTDDTARYYCARGTGTWYFDVWGAGTTVTVSSASTKGPSVFPLAPSSKSTSGGTAALGCLVKDYFPEPVTVSWNSGALTSGVHTFPAVLQSSGLYSLSSVVTVPSSSLGTQTYICNVNHKPSNTKVDKKVEPKSCDKTHTCPPCPAPEAAGGPSVFLFPPKPKDTLMISRTPEVTCVVVSVSHEDPEVKFNWYVDGVEVHNAKTKPREEQYNSTYRVVSVLTVLHQDWLNGKEYKCKVSNKALPAPIEKTISKAKGQPREPQVYVLPPSRDELTKNQVSLLCLVKGFYPSDIAVEWESNGQPENNYLTWPPVLDSDGSFFLYSKLTVDKSRWQQGNVFSCSVMHEALHNHYTQKSLSLSPG light: DIQMTQTTSSLSASLGDRVTISCSASQGISNYLNWYQQKPDGTVKLLIYYTSSLHSGVPSRFSGSGSGTDYSLTISNLEPEDIATYYCQQYSDLPWTFGGGTKLEIKRTVAAPSVFIFPPSDEQLKSGTASVVCLLNNFYPREAKVQWKVDNALQSGNSQESVTEQDSKDSTYSLSSTLTLSKADYEKHKVYACEVTHQGLSSPVTKSFNRGEC | 364 | binds
3 | v23651 (bispecific antibody, human IgG1, kappa, L234A L235A, also called 1C8 x Mirvetuximab (scFv) 2x1) heavy 1: QVQLKESGPGLVAPSQSLSITCTVSGFSLTTYAISWVRQPPGKGLEWLGIIWPGGGTNYNSALKSRLSISKDNSRSQVFLKMNSLQTDDTARYYCARGAGTWYFDVWGAGTTVTVSSASTKGPSVFPLAPSSKSTSGGTAALGCLVKDYFPEPVTVSWNSGALTSGVHTFPAVLQSSGLYSLSSVVTVPSSSLGTQTYICNVNHKPSNTKVDKKVEPKSCDKTHTCPPCPAPEAAGGPSVFLFPPKPKDTLMISRTPEVTCVVVSVSHEDPEVKFNWYVDGVEVHNAKTKPREEQYNSTYRVVSVLTVLHQDWLNGKEYKCKVSNKALPAPIEKTISKAKGQPREPQVYVYPPSRDELTKNQVSLTCLVKGFYPSDIAVEWESNGQPENNYKTTPPVLDSDGSFALVSKLTVDKSRWQQGNVFSCSVMHEALHNHYTQKSLSLSPGGGGGQVQLVQSGAEVVKPGASVKISCKASGYTFTGYFMNWVKQSPGQSLEWIGRIHPYDGDTFYNQKFQGKATLTVDKSSNTAHMELLSLTSEDFAVYYCTRYDGSRAMDYWGQGTTVTVSSGGGGSGGGGSGGGGSDIVLTQSPLSLAVSLGQPAIISCKASQSVSFAGTSLMHWYHQKPGQQPRLLIYRASNLEAGVPDRFSGSGSKTDFTLTISPVEAEDAATYYCQQSREYPYTFGGGTKLEIK heavy 2: QVQLKESGPGLVAPSQSLSITCTVSGFSLTTYAISWVRQPPGKGLEWLGIIWPGGGTNYNSALKSRLSISKDNSRSQVFLKMNSLQTDDTARYYCARGAGTWYFDVWGAGTTVTVSSASTKGPSVFPLAPSSKSTSGGTAALGCLVKDYFPEPVTVSWNSGALTSGVHTFPAVLQSSGLYSLSSVVTVPSSSLGTQTYICNVNHKPSNTKVDKKVEPKSCDKTHTCPPCPAPEAAGGPSVFLFPPKPKDTLMISRTPEVTCVVVSVSHEDPEVKFNWYVDGVEVHNAKTKPREEQYNSTYRVVSVLTVLHQDWLNGKEYKCKVSNKALPAPIEKTISKAKGQPREPQVYVLPPSRDELTKNQVSLLCLVKGFYPSDIAVEWESNGQPENNYLTWPPVLDSDGSFFLYSKLTVDKSRWQQGNVFSCSVMHEALHNHYTQKSLSLSPG light: DIQMTQSTSSLSASVGDRVTISCSASQGISNYLNWYQQKPDGTVKLLIYYTSSLHSGVPSRFSGSGSGTDYSLTISNLEPEDIATYYCQQYSKFPWTFGGGTKLEIKRTVAAPSVFIFPPSDEQLKSGTASVVCLLNNFYPREAKVQWKVDNALQSGNSQESVTEQDSKDSTYSLSSTLTLSKADYEKHKVYACEVTHQGLSSPVTKSFNRGEC |  | binds
4 | v23656 (bispecific antibody, human IgG1, kappa, L234A L235A, Two 4-1BB Fabs, one FRα scFv at the C-terminus of one heavy chain; also called 1C8 x 8K22 (VLVH) 2x1) heavy 1: QVQLKESGPGLVAPSQSLSITCTVSGFSLTTYAISWVRQPPGKGLEWLGIIWPGGGTNYNSALKSRLSISKDNSRSQVFLKMNSLQTDDTARYYCARGAGTWYFDVWGAGTTVTVSSASTKGPSVFPLAPSSKSTSGGTAALGCLVKDYFPEPVTVSWNSGALTSGVHTFPAVLQSSGLYSLSSVVTVPSSSLGTQTYICNVNHKPSNTKVDKKVEPKSCDKTHTCPPCPAPEAAGGPSVFLFPPKPKDTLMISRTPEVTCVVVSVSHEDPEVKFNWYVDGVEVHNAKTKPREEQYNSTYRVVSVLTVLHQDWLNGKEYKCKVSNKALPAPIEKTISKAKGQPREPQVYVYPPSRDELTKNQVSLTCLVKGFYPSDIAVEWESNGQPENNYKTTPPVLDSDGSFALVSKLTVDKSRWQQGNVFSCSVMHEALHNHYTQKSLSLSPGGGGGDIVMTQTPASVEAAVGGTVTIKCQASQSIYSSLAWYQQKPGQSPKLLIYDASHLASGVPSRFSGSRYGTEFTLTISGVQCDDAATYYCQGGWYSSAATYVPNTFGGGTEVVVKGGGGSGGGGSGGGGSQEQLVESGGGLVQPEGSLTLTCKASGFTISNNYYMCWVRQAPGKGLEWIACIYGGISGRTYYASWAKGRFTISKTSSTTVTLQMTSLTAADTATYFCVRGYVGTSNLWGPGTLVTVSS heavy 2: QVQLKESGPGLVAPSQSLSITCTVSGFSLTTYAISWVRQPPGKGLEWLGIIWPGGGTNYNSALKSRLSISKDNSRSQVFLKMNSLQTDDTARYYCARGAGTWYFDVWGAGTTVTVSSASTKGPSVFPLAPSSKSTSGGTAALGCLVKDYFPEPVTVSWNSGALTSGVHTFPAVLQSSGLYSLSSVVTVPSSSLGTQTYICNVNHKPSNTKVDKKVEPKSCDKTHTCPPCPAPEAAGGPSVFLFPPKPKDTLMISRTPEVTCVVVSVSHEDPEVKFNWYVDGVEVHNAKTKPREEQYNSTYRVVSVLTVLHQDWLNGKEYKCKVSNKALPAPIEKTISKAKGQPREPQVYVLPPSRDELTKNQVSLLCLVKGFYPSDIAVEWESNGQPENNYLTWPPVLDSDGSFFLYSKLTVDKSRWQQGNVFSCSVMHEALHNHYTQKSLSLSPG light: DIQMTQSTSSLSASVGDRVTISCSASQGISNYLNWYQQKPDGTVKLLIYYTSSLHSGVPSRFSGSGSGTDYSLTISNLEPEDIATYYCQQYSKFPWTFGGGTKLEIKRTVAAPSVFIFPPSDEQLKSGTASVVCLLNNFYPREAKVQWKVDNALQSGNSQESVTEQDSKDSTYSLSSTLTLSKADYEKHKVYACEVTHQGLSSPVTKSFNRGEC | 480 | binds
